This note sets out measurements from US20250197495A1 (Bristol-Myers Squibb, published 2025).

The target of the experiment is T1, cynomolgus LAG-3 (cynomolgus).
T1 construct: whole, on cells; also called primate LAG-3
Put plainly: flow cytometry on transfected CHO cells and activated cynomolgus T cells; which cell type gives which end is not stated.

B1: BMS-986016 (antibody, human IgG4 S228P, kappa, V domains shown)
VH: QVQLQQWGAGLLKPSETLSLTCAVYGGSFSDYYWNWIRQPPGKGLEWIGEINHRGSTNSNPSLKSRVTLSLDTSKNQFSLKLRSVTAADTAVYYCAFGYSDYEYNWFDPWGQGTLVTVSS
VL: EIVLTQSPATLSLSPGERATLSCRASQSISSYLAWYQQKPGQAPRLLIYDASNRATGIPARFSGSGSGTDFTLTISSLEPEDFAVYYCQQRSNWPLTFGQGTNLEIKR
notes: Fully human IgG4 with the stabilizing hinge mutation S228P; also called anti-LAG-3 antibody
Regarding B1, the half-maximal effective concentration (EC50) lay within 21.5 to 34.3 nM.

In general, EC50 refers to the concentration giving half of the maximal effect.
